{
  "source": "paper doi:10.1101/2020.02.07.938530",
  "key": {"[1]": {"target": "5FLAG-Scc1 (yeast (budding yeast, Saccharomyces cerevisiae)) (UniProt Q12158)", "sequence (Q12158 whole entry)": "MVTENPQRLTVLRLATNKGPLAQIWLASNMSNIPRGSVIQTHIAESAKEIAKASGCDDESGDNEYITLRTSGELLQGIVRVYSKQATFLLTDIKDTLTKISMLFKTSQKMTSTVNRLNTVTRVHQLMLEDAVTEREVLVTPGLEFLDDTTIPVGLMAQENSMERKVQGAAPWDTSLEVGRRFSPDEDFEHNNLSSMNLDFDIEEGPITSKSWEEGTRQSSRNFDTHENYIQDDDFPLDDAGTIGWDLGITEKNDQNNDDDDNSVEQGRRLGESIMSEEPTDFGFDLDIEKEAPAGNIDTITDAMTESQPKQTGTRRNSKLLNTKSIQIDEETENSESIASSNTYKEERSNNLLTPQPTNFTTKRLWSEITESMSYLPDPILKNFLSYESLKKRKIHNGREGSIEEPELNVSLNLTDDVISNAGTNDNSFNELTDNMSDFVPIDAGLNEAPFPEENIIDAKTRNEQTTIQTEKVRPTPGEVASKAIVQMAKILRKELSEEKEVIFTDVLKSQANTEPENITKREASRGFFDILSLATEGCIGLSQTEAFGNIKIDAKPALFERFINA", "experiment": "co-IP"}, "[2]": {"target": "5FLAG-Scc1 (yeast (budding yeast, Saccharomyces cerevisiae)) (UniProt Q12158)", "experiment": "co-IP", "remark": "listed apart in the source"}},
  "note": "Where two headings read alike, the source gives them in different places.",
  "data": [
    {"substance": "GFP-Scc1 (from UniProt Q12158 1-566) (natural protein)", "values": [
      {"measurement": "percentage of cohesin dimers", "setting": "[1]", "value": 20, "unit": "%"},
      {"measurement": "percentage of cohesin dimers", "setting": "[2]", "value": 40, "unit": "%"}
    ]}
  ]
}
